This test addresses T1, Vps41-TAP (yeast), P38959.
T1 chain: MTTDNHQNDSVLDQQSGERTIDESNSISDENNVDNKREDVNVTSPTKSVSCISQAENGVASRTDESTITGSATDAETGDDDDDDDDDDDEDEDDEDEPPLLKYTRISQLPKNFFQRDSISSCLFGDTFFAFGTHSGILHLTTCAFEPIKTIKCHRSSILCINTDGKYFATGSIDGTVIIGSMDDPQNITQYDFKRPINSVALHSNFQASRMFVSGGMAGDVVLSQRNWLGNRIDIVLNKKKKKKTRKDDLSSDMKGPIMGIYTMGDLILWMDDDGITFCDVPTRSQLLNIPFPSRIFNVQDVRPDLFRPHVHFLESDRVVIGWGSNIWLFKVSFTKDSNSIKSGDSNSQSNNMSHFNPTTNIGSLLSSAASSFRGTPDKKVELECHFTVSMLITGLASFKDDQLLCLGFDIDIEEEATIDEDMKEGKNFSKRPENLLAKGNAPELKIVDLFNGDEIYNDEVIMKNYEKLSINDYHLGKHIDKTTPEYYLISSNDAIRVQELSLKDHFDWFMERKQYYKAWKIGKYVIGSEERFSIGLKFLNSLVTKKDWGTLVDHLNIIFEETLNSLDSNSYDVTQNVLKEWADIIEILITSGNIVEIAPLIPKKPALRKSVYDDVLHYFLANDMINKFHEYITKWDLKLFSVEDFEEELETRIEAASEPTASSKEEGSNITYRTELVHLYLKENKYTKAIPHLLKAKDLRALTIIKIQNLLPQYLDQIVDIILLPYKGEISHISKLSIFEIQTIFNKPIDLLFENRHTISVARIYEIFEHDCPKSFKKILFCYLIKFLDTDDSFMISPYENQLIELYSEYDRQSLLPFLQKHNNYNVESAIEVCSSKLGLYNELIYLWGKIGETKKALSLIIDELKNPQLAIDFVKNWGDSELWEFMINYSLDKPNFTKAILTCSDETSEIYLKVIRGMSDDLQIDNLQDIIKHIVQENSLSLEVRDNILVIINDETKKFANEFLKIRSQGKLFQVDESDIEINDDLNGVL
Description: co-IP. The note with it: remark: other sources report otherwise.

B1: Vps39, Q07468 1-1049 (natural protein)
chain: MLRAQKLHSLKSSDITAILPTEQSQKLVLAKKNGDVEVYSRDGNTLKLFQVYPDLLQNAKNDPLPPVIENFYFANELSTIFAQCKETLILLSTTNLHEYDRIIDRRGINHCWLFERSHKNKEEKNTYLIYSTINTAKMRVLIWEGRTYKNMMEASLSYRKETIRSIYPGETGITLATDLGIYHWPYNKPSLIRIEKTVKNKFPKDMISALTELKEQAEKVIEKKPKKNSHFDAQSFSSMDRMSRKSSMSSLWYRTIRNERGNKIRYTFELDGNDATPMIIDGATKKIFKVELMHNNEEPFLIATDHATFSESNSEFDHMQYLSSNLLMLYNSSTIKFVDYENGFTFLQQKIPEGIKWVKNLSGTYFLVWTSNDEVQLFSYHVDDGSEDDDQESICGDINDPDFYQLWRKVLFYKFFIDSPHSKELCVSDNPEESLDICAMKLRDLTVMWCLRIFDKFQNYMVQLERSRNSRMIRSKCEEMIIKSIFDLFIKFWAPPQLVILKVFPSAISSLVLEITGQEHHCLLKEAEEVKETYDIPPHLLNRWCLPYLTDTRRHLQNLLSKENDDESRITWCYRDREIKQSFDFFLISNHDDVDLNTMLTLIDTVLFKCYLYYNPPMVGPFIRVENHCDSHVIVTELKIRHMFKDLIDFYYKRGNHEEALKFLTDLVDELENDNTDQKQRQKIDHGVKILVIYYLKKLSNPQLDVIFTYTDWLLNRHNDSIKEILSSIFFYDSQACSSRDHLKVYGYIKKFDKLLAIQYLEFAISTFRLEGNKLHTVLIKLYLENLDIPSTRIKLKSLLETTSVYEPRTILKLLNDAIESGSDQLPTNQLNFVKYLKIFPLSKLENHKEAVHILLDEIDDYKAATSYCNDVYQSDSTKGEELLLYLYSKLVSIYDSNRNSKLILNFLQDHGSKLNSAEIYKNLPQDISLYDIGRVVSQLLKKHTSKMDETRLEKALLQVELVATTYKLNERMSSYGVLSDSHKCPICKKVISNFGTDSISWFTREGRNIITHYNCGKVLQERFNAKNEKSSRIKQKTLGEVINELNNK
B1 yielded a co-precipitation efficiency relative to that of Vps41-HA of 2 fold.
